Measurements from IntAct's records for PubMed 31515488.

B1: Peroxisomal bifunctional enzyme (Homo sapiens), Q08426 (parent)
chain: MAEYTRLHNALALIRLRNPPVNAISTTLLRDIKEGLQKAVIDHTIKAIVICGAEGKFSAGADIRGFSAPRTFGLTLGHVVDEIQRNEKPVVAAIQGMAFGGGLELALGCHYRIAHAEAQVGLPEVTLGLLPGARGTQLLPRLTGVPAALDLITSGRRILADEALKLGILDKVVNSDPVEEAIRFAQRVSDQPLESRRLCNKPIQSLPNMDSIFSEALLKMRRQHPGCLAQEACVRAVQAAVQYPYEVGIKKEEELFLYLLQSGQARALQYAFFAERKANKWSTPSGASWKTASARPVSSVGVVGLGTMGRGIVISFARARIPVIAVDSDKNQLATANKMITSVLEKEASKMQQSGHPWSGPKPRLTSSVKELGGVDLVIEAVFEEMSLKKQVFAELSAVCKPEAFLCTNTSALDVDEIASSTDRPHLVIGTHFFSPAHVMKLLEVIPSQYSSPTTIATVMNLSKKIKKIGVVVGNCFGFVGNRMLNPYYNQAYFLLEEGSKPEEVDQVLEEFGFKMGPFRVSDLAGLDVGWKSRKGQGLTGPTLLPGTPARKRGNRRYCPIPDVLCELGRFGQKTGKGWYQYDKPLGRIHKPDPWLSKFLSRYRKTHHIEPRTISQDEILERCLYSLINEAFRILGEGIAASPEHIDVVYLHGYGWPRHKGGPMFYASTVGLPTVLEKLQKYYRQNPDIPQLEPSDYLKKLASQGNPPLKEWQSLAGSPSSKL
partner: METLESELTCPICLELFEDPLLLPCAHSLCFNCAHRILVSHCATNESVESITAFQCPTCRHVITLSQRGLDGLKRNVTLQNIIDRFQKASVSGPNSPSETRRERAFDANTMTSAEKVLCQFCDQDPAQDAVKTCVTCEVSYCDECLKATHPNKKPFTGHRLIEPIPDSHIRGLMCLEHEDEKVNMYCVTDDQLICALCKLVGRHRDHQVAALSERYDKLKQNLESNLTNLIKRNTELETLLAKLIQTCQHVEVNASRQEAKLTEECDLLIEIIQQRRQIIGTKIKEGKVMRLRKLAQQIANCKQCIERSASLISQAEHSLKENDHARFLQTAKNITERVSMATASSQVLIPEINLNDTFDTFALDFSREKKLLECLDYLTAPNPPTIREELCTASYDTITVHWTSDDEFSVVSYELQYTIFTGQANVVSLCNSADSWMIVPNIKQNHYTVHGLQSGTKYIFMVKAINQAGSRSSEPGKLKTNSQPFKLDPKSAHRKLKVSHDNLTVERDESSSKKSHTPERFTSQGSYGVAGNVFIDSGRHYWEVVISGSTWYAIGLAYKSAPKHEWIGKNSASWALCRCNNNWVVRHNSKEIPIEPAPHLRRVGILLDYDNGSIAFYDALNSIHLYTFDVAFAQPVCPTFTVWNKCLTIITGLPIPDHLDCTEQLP
B2: Potassium channel subfamily K member 1 (Homo sapiens), O00180 (parent)
chain: MLQSLAGSSCVRLVERHRSAWCFGFLVLGYLLYLVFGAVVFSSVELPYEDLLRQELRKLKRRFLEEHECLSEQQLEQFLGRVLEASNYGVSVLSNASGNWNWDFTSALFFASTVLSTTGYGHTVPLSDGGKAFCIIYSVIGIPFTLLFLTAVVQRITVHVTRRPVLYFHIRWGFSKQVVAIVHAVLLGFVTVSCFFFIPAAVFSVLEDDWNFLESFYFCFISLSTIGLGDYVPGEGYNQKFRELYKIGITCYLLLGLIAMLVVLETFCELHELKKFRKMFYVKKDKDEDQVHIIEHDQLSFSSITDQAAGMKEDQKQNEPFVATQSSACVDGPANH
partner: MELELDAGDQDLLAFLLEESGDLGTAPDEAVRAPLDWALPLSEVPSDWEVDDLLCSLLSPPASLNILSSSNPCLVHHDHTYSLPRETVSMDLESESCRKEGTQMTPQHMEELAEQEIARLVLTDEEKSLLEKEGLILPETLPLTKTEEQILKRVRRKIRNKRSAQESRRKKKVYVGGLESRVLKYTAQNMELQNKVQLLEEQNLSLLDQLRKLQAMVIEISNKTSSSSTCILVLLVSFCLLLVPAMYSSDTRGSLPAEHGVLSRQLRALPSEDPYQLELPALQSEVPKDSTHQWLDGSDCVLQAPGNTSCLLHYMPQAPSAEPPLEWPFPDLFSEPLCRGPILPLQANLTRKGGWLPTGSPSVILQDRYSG
B3: Notch homolog 2 N-terminal-like protein A (Homo sapiens), Q7Z3S9 (parent)
chain: MCVTYHNGTGYCKCPEGFLGEYCQHRDPCEKNRCQNGGTCVAQAMLGKATCRCASGFTGEDCQYSTSHPCFVSRPCLNGGTCHMLSRDTYECTCQVGFTGKECQWTDACLSHPCANGSTCTTVANQFSCKCLTGFTGQKCETDVNECDIPGHCQHGGTCLNLPGSYQCQCLQGFTGQYCDSLYVPCAPSPCVNGGTCRQTGDFTFECNCLPETVRRGTELWERDREVWNGKEHDEN

Variants of: B1
Details: with tri18_human MID1, O15344
With I646T the “effect of a mutation on the interaction” value was “disrupting interaction strength”. With R483Q the “effect of a mutation on the interaction” value was “with no effect”. With R556G the “effect of a mutation on the interaction” value was “with no effect”. For L715S, the “effect of a mutation on the interaction” value was “with no effect”. S703F was tested, and the “effect of a mutation on the interaction” value was “with no effect”.

Variants of: B2
Details: with creb3_human CREB3, O43889
R171H was tested, and the “effect of a mutation on the interaction” value was “with no effect”.

Variants of: B3
Details: with pde9a_human PDE9A
For R74Q, the “effect of a mutation on the interaction” value was “with no effect”.

Variants of: B3
Details: with ppbi_human ALPI
In the case of R74Q, the “effect of a mutation on the interaction” value is reported as “with no effect”.

Variants of: B3
Details: with snai1_human SNAI1, O95863
For R74Q, the “effect of a mutation on the interaction” value was “with no effect”.

Variants of: B3
Details: with anfb_human NPPB
R74Q was tested, and the “effect of a mutation on the interaction” value was “with no effect”.

Variants of: B3
Details: with adck5_human ADCK5, Q3MIX3
Sequence of adck5_human ADCK5, Q3MIX3 (Q3MIX3 whole entry): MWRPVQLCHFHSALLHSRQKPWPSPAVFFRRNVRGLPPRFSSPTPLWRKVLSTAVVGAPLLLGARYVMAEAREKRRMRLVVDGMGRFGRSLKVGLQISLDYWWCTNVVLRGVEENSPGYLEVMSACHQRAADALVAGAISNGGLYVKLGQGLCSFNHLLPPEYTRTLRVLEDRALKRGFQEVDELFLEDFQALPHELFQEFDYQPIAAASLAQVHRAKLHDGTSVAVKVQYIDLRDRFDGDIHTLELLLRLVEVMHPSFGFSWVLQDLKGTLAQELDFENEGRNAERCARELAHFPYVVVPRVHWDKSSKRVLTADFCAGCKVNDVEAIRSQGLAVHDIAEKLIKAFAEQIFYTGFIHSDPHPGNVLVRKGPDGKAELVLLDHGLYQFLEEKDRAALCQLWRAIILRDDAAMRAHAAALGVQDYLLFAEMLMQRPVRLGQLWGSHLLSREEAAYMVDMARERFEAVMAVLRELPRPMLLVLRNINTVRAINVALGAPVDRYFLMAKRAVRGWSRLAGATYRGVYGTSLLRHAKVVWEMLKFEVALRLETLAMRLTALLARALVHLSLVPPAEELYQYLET
For R74Q, the “effect of a mutation on the interaction” value was “with no effect”.

Variants of: B3
Details: with catz_human CTSZ
For R74Q, the “effect of a mutation on the interaction” value was “with no effect”.

Variants of: B3
Details: with txnd5_human TXNDC5, Q8NBS9
Sequence of txnd5_human TXNDC5, Q8NBS9 (Q8NBS9 whole entry): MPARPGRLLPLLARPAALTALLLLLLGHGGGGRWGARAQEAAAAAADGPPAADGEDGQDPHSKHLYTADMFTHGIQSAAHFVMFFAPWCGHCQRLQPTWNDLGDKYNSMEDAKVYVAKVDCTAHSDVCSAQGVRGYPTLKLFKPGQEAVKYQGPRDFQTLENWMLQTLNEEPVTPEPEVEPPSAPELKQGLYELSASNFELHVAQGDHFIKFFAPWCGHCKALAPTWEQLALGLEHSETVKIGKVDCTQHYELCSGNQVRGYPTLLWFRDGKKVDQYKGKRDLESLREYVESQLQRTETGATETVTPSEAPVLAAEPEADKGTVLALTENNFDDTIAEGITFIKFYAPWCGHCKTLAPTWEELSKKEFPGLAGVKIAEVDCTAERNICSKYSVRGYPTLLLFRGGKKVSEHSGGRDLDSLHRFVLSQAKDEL
In the case of R74Q, the “effect of a mutation on the interaction” value is reported as “with no effect”.

Variants of: B3
Details: with trpv6_human TRPV6, Q9H1D0
Sequence of trpv6_human TRPV6, Q9H1D0 (Q9H1D0 whole entry): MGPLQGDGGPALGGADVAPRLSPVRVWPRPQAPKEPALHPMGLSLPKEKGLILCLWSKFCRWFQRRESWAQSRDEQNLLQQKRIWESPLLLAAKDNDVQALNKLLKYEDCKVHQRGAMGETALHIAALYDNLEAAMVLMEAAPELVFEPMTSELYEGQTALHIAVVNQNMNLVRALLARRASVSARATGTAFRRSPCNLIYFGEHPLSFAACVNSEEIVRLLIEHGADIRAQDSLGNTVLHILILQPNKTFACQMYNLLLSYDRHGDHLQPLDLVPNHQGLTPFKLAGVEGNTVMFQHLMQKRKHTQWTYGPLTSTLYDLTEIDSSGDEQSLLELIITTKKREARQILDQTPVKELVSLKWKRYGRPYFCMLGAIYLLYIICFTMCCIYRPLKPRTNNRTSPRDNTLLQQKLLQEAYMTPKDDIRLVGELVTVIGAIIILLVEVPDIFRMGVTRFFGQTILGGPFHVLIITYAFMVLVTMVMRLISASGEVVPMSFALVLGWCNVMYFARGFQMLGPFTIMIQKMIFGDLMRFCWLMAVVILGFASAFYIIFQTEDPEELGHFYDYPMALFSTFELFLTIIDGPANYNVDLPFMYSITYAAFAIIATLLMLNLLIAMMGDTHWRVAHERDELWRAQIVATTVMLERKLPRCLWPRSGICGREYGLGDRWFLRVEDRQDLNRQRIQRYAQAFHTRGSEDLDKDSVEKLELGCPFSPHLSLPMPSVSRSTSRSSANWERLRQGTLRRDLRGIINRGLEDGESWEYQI
For R74Q, the “effect of a mutation on the interaction” value was “with no effect”.

Variants of: B3
Details: with ptn23_human PTPN23, Q9H3S7
Sequence of ptn23_human PTPN23, Q9H3S7 (Q9H3S7 whole entry): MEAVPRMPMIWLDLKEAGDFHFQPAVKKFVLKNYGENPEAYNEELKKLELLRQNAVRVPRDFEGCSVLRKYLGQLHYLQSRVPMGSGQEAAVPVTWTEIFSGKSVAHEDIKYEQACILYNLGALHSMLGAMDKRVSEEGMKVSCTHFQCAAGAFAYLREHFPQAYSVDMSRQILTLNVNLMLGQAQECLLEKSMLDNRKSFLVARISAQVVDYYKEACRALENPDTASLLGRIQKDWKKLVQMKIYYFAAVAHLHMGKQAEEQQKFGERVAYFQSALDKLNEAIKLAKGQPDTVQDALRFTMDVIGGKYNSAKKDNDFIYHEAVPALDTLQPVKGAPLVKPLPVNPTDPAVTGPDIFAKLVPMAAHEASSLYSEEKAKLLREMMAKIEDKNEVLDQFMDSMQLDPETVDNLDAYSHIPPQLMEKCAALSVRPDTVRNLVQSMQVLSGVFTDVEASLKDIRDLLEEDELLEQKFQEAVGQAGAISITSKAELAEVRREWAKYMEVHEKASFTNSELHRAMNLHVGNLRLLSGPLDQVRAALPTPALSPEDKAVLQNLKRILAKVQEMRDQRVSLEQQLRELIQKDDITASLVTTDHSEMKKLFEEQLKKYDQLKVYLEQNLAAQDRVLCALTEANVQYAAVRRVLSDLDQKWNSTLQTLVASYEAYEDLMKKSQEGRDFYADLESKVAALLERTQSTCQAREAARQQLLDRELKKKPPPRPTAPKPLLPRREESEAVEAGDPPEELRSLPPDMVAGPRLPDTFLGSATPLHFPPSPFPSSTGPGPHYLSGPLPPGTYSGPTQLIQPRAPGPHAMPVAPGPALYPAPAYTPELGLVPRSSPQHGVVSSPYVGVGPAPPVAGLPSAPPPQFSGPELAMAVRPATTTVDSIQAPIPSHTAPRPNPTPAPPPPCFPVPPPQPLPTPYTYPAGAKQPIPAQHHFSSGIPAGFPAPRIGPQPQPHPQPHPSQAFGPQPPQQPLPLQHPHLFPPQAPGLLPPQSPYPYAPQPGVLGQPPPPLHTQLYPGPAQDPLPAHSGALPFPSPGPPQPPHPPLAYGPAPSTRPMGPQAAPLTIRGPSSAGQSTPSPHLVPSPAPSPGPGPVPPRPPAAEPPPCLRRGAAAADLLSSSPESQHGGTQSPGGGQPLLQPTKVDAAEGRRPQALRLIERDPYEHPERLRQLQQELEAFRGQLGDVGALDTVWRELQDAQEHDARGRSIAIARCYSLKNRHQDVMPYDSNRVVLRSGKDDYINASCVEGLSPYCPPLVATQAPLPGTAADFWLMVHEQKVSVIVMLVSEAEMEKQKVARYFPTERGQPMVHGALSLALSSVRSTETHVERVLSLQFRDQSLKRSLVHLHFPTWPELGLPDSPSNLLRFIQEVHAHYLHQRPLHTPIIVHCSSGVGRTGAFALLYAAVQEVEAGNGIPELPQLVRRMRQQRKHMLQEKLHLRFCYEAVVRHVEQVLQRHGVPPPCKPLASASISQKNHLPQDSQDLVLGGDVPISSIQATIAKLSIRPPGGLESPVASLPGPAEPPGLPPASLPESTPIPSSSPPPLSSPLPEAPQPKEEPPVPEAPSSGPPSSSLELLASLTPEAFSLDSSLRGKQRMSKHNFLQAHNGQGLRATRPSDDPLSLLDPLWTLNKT
In the case of R74Q, the “effect of a mutation on the interaction” value is reported as “with no effect”.

Variants of: B3
Details: with gata2_human GATA2, P23769
In the case of R74Q, the “effect of a mutation on the interaction” value is reported as “with no effect”.

Variants of: B3
Details: with hbaz_human HBZ
For R74Q, the “effect of a mutation on the interaction” value was “with no effect”.

Variants of: B3
Details: with nect3_human NECTIN3, Q9NQS3
In the case of R74Q, the “effect of a mutation on the interaction” value is reported as “with no effect”.

Variants of: B3
Details: with cd5r1_human CDK5R1, Q15078
Sequence of cd5r1_human CDK5R1, Q15078 (Q15078 whole entry): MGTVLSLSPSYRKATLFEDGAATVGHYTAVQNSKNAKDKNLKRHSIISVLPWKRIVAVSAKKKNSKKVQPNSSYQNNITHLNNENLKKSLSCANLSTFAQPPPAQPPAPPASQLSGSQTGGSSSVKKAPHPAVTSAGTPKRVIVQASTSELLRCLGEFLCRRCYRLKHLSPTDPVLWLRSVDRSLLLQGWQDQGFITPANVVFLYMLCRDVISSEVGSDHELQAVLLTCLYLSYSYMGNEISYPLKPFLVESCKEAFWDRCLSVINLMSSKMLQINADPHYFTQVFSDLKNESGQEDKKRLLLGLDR
With R74Q the “effect of a mutation on the interaction” value was “with no effect”.

Variants of: B3
Details: with uxt_human UXT
For R74Q, the “effect of a mutation on the interaction” value was “with no effect”.

Variants of: B3
Details: with yipf3_human YIPF3, Q9GZM5
Sequence of yipf3_human YIPF3, Q9GZM5 (Q9GZM5 whole entry): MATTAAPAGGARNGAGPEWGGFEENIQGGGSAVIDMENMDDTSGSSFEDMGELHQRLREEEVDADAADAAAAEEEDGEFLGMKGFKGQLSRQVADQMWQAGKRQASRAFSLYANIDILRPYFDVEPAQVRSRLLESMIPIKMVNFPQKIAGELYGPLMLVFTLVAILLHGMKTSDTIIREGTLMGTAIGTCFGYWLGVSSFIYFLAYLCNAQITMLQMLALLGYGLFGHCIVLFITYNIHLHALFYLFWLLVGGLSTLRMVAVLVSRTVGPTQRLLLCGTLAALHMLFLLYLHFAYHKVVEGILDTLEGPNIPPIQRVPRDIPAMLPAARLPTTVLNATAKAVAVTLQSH
With R74Q the “effect of a mutation on the interaction” value was “with no effect”.

Variants of: B3
Details: with thms2_human THEMIS2, Q5TEJ8
Sequence of thms2_human THEMIS2, Q5TEJ8 (Q5TEJ8 whole entry): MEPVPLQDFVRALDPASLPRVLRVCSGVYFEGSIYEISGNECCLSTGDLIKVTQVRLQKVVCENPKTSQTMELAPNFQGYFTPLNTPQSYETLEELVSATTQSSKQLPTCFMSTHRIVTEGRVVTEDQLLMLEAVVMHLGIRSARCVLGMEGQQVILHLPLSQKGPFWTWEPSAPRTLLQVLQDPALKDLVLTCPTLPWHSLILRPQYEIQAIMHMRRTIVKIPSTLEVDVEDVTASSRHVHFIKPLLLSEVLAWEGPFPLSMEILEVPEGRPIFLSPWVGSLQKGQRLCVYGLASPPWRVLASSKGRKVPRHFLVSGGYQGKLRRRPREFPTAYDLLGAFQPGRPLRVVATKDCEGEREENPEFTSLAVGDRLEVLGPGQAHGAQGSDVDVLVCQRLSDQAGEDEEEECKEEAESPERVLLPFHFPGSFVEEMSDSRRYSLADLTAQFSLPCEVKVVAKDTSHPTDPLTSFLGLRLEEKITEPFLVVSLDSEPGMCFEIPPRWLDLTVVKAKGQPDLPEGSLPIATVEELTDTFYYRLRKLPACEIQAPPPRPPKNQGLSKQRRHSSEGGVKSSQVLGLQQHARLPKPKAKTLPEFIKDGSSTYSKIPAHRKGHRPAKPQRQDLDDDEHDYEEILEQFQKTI
In the case of R74Q, the “effect of a mutation on the interaction” value is reported as “with no effect”.

Variants of: B3
Details: with bmp7_human BMP7, P18075
In the case of R74Q, the “effect of a mutation on the interaction” value is reported as “with no effect”.

Variants of: B3
Details: with cxcl5_human CXCL5, P42830
Sequence of cxcl5_human CXCL5, P42830 (P42830 whole entry): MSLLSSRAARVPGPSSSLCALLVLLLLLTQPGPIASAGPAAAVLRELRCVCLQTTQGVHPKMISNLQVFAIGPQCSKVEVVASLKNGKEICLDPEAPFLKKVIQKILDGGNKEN
In the case of R74Q, the “effect of a mutation on the interaction” value is reported as “with no effect”.
